{"source": "paper PMC2683983", "about": "(Molecular pharmaceutics, 2009)", "key": {"[1]": {"conditions": "pH 7.4; cited from earlier work"}, "[2]": {"tested_on": "HL-60 cells", "conditions": "HL-60, 10 μM, 1 h; for intracellular fluorescence distribution / uptake at 4 °C / intracellular fluorescence distribution at 37 °C: RPMI 1640, epifluorescence, rhodamine filter; for entry mechanism into cells: 37 °C compared with 4 °C"}, "[3]": {"tested_on": "ICAM-1/LFA-1-mediated heterotypic T-cell adhesion", "conditions": "cited from earlier work"}, "[4]": {"tested_on": "I-domain of LFA-1", "conditions": "cited from earlier work"}}, "note": "Numbered stars: 1 amine (or outer) side, 2 acyl side, 3 side chain; on linkers, the order of the positions; unused ones are H or OH. Bridge positions count the residues as written; N and C are the ends. Peptide text beside a SMILES is read from it. * marks the point of attachment. Doxorubicin(3'-N) = COc1cccc2c1C(=O)c1c(O)c3c(c(O)c1C2=O)C[C@@](O)(C(=O)CO)C[C@@H]3O[C@H]1C[C@H](N*)[C@H](O)[C@H](C)O1; Suc = O=C(CCC(=O)[*:2])[*:1]; AEEEA = NCCOCCOCCOCC(=O)O", "data": [{"molecule": "COc1cccc2c1C(=O)c1c(O)c3c(c(O)c1C2=O)C[C@@](O)(C(=O)CO)C[C@@H]3O[C@H]1C[C@H](N)[C@H](O)[C@H](C)O1", "note": "[DOX, Doxorubicin, reference compound]", "values": [{"measurement": "distribution ratio", "setting": "[1]", "value": 1.2}, {"measurement": "intracellular fluorescence distribution / uptake at 4 °C", "setting": "[2]", "value": "uptake of DOX was suppressed"}, {"measurement": "intracellular fluorescence distribution at 37 °C", "setting": "[2]", "value": "localized inside the nucleus"}]}, {"molecule": "COc1cccc2c1C(=O)c1c(O)c3c(c(O)c1C2=O)C[C@@](O)(C(=O)CO)C[C@@H]3O[C@H]1C[C@H](NC(=O)CCC(=O)NCCOCCOCCOCC(=O)N[C@H]2CSSC[C@@H](C(=O)O)NC(=O)[C@H](C(C)C)NC(=O)[C@H](CO)NC(=O)CNC(=O)CNC(=O)[C@H](CCCNC(=N)N)NC(=O)[C@@H]3CCCN3C2=O)[C@H](O)[C@H](C)O1", "note": "[DOX-PEGcIBR7] ({Doxorubicin(3'-N)-Suc-AEEEA}-CPRGGSVC-OH; disulfide 1-8)", "values": [{"measurement": "intracellular fluorescence distribution / uptake at 4 °C", "setting": "[2]", "value": "diffuse fluorescence of the conjugates inside the cell cytosol"}, {"measurement": "entry mechanism into cells", "setting": "[2]", "value": "passive diffusion"}, {"measurement": "intracellular fluorescence distribution at 37 °C", "setting": "[2]", "value": "diffuse fluorescence distribution pattern in the cellular cytoplasm"}]}, {"molecule": "COc1cccc2c1C(=O)c1c(O)c3c(c(O)c1C2=O)C[C@@](O)(C(=O)CO)C[C@@H]3O[C@H]1C[C@H](NC(=O)CCC(=O)N[C@H]2CSSC[C@@H](C(=O)O)NC(=O)[C@H](C(C)C)NC(=O)[C@H](CO)NC(=O)CNC(=O)CNC(=O)[C@H](CCCNC(=N)N)NC(=O)[C@@H]3CCCN3C2=O)[C@H](O)[C@H](C)O1", "note": "[DOX-cIBR7] ({Doxorubicin(3'-N)-Suc}-CPRGGSVC-OH; disulfide 1-8)", "values": [{"measurement": "intracellular fluorescence distribution / uptake at 4 °C", "setting": "[2]", "value": "diffuse fluorescence of the conjugates inside the cell cytosol"}, {"measurement": "entry mechanism into cells", "setting": "[2]", "value": "passive diffusion"}, {"measurement": "intracellular fluorescence distribution at 37 °C", "setting": "[2]", "value": "diffuse fluorescence distribution pattern in the cellular cytoplasm"}]}, {"molecule": "CNGRC [DOX-CNGRC]", "values": [{"measurement": "distribution ratio", "setting": "[1]", "value": 5.3}]}, {"molecule": "cyclo(1,6)PRGGKV (head to tail)", "values": [{"measurement": "peptide activity after introduction of Lys5 in place of Ser5", "setting": "[3]", "value": "lower peptide activity"}]}, {"molecule": "cyclo(1,8)CPRGGSVC (disulfide) [cIBR7]", "values": [{"measurement": "activity to inhibit heterotypic T-cell adhesion compared with parent cIBR", "setting": "[3]", "value": "better activity"}, {"measurement": "binding affinity to the isolated I-domain compared with cIBR", "setting": "[4]", "value": "higher"}]}]}
